Source: patent US7608412

Molecular target: GST-aPKCt
Assay: co-immunoprecipitation from HEK cells transfected with HA-GSK3β, GST-aPKCt and myc-p62; anti-HA IP, anti-GST blot, densitometry; with against without p62

Chain of Hemagglutinin (HA)-tagged GSK3β (enzyme) (P49841 whole entry): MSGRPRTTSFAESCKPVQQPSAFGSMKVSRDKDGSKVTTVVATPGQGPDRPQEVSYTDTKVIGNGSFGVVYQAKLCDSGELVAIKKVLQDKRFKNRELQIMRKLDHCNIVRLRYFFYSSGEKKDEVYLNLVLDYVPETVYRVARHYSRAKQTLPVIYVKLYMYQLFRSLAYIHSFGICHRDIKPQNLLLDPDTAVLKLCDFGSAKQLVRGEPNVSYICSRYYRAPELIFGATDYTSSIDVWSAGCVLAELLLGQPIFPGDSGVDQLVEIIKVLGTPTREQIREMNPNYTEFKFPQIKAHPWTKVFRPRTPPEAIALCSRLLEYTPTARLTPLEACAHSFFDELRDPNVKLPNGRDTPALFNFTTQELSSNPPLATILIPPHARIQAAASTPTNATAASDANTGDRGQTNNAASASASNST

Substance: Hemagglutinin (HA)-tagged GSK3β (enzyme)
- fold enhancement of the interaction in the presence of p62: 2 fold
